In publication PMC6853982:

Target: GFP-AtEH1/Pan1 (Arabidopsis) (UniProt Q9LM78)
Test: FRET or BRET; FRET-FLIM in N. benthamiana leaf cells transiently co-expressing the GFP donor and RFP acceptor fusions; GFP-AtEH1/Pan1 alone as donor control; whole field images

Sequence of UniProt Q9LM78 (Q9LM78 entry or part of it): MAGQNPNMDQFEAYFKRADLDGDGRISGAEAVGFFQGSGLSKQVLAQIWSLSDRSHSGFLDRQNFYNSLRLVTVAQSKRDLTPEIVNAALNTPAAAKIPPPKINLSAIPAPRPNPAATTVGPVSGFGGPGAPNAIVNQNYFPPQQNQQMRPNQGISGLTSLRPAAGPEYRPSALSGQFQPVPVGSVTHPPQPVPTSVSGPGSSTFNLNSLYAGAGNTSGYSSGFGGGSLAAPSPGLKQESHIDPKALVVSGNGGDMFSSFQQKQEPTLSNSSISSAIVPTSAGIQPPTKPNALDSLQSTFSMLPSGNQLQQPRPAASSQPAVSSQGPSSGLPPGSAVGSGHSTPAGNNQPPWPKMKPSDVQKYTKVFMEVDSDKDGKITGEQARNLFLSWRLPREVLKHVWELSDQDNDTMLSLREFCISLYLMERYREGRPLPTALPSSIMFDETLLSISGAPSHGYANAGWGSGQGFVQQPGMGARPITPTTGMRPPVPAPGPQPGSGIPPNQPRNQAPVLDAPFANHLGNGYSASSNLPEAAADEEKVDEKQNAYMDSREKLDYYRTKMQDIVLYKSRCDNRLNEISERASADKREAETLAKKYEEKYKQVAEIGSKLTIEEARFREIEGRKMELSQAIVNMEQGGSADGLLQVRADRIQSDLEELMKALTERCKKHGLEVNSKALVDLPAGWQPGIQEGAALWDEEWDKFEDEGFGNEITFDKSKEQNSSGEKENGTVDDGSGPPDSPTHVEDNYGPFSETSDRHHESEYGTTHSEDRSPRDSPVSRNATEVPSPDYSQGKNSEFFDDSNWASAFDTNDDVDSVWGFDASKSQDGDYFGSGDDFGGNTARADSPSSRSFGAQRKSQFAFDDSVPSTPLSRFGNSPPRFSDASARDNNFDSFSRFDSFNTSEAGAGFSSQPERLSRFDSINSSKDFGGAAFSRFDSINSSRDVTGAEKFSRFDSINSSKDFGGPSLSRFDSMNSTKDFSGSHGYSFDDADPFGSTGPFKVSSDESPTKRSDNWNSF

fluorescence life-time of the GFP donor in the presence of the RFP acceptor: 2.45 ns
Substance: RFP-AtEH2/Pan1 (natural protein)
